Measured values from US20150344570A1 (published 2015).

Columns and labels:
[1] = target: T1, FcγRIIa R (FcγRIIa allotype with Arg at position 131), extracellular domain with C-terminal His tag (human, UniProt P12318 34-217); experiment: SPR (Biacore), antibody captured, FcγR analyte; vs GpH7-A5/GpH7-B3/GpL16-k0 = 100
T1 construct: extracellular domain; made in FreeStyle293 cells; analyte in the Biacore assay; also called FcγRIIa type R; 2aR
T1 sequence (looked up): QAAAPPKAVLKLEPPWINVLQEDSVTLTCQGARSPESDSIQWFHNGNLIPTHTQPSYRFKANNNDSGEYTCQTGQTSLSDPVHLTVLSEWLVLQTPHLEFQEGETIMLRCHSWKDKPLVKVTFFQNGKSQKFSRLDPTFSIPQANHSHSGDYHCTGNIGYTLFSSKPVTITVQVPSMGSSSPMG
Experimental: (§1) The heterodimerized antibodies He Abs in which one of the H chains was introduced with an alteration were assayed for their binding activities to each activating FcγR and inhibitory FcγR according to the method described in Example 4. […] The activating FcγRs in FIGS. 26, 27, 28, and 29 are FcγRIa, FcγRIIa (R), FcγRIIa (H), and FcγRIIIa, respectively.
(§2) Analysis of interaction between objective antibody and the FcγR was carried out using Biacore T100 (GE Healthcare). HBS-EP+ (GE Healthcare) was used as the running buffer, and the measurement temperature was set to 25° C. Chips produced by immobilizing the antigen peptide by the amine coupling method to a Series S Sencor Chip CM5 (GE Healthcare), or alternatively, chips produced by allowing preliminarily biotinylated antigen peptides to interact with and immobilize onto a Series S Sensor Chip SA (certified) (GE Healthcare) were used. Antibodies of interest were captured onto an antigen peptide-immobilized chip, and allowed to interact to each FcγR diluted with running buffer. To regenerate and repeatedly use the chip, the antibodies captured on the chip were washed off by reacting 10 mM glycine-HCl, pH 1.5.

[2] = target: T2, FcγRIIb, extracellular domain with C-terminal His tag (human, UniProt P31994 43-217); experiment: as above
T2 construct: extracellular domain; made in FreeStyle293 cells; analyte in the Biacore assay; also called 2b; FcgRIIb
T2 sequence (looked up): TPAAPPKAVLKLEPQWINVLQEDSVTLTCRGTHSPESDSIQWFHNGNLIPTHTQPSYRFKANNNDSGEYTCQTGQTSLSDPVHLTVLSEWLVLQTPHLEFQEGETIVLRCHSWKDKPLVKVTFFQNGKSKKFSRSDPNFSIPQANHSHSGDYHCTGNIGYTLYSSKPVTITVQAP
Experimental: as §1, §2

B1: GpH7-A5/GpH7-B3 variant P331_09D/GpL16-k0 (antibody, human IgG1, kappa)
heavy 1: not shown
heavy 2: not shown
light: DIVMTQSPLSLPVTPGEPASISCQASESLVHSNRNTYLHWYLQKPGQSPQLLIYKVSNRFSGVPDRFSGSGSGTDFTLKISRVEAEDVGVYYCSQNTHVPPTFGQGTKVEIERTVAAPSVFIFPPSDEQLKSGTASVVCLLNNFYPREAKVQWKVDNALQSGNSQESVTEQDSKDSTYSLSSTLTLSKADYEKHKVYACEVTHQGLSSPVTKSFNRGEC
notes: heterodimerized IgG1, mutation in one H chain only; also called He Ab
- He/Con_2aR [1]: 102 relative (HeCon Ab = 100)
- He/Con_2b [2]: 94.3 relative (HeCon Ab = 100)

B2: GpH7-A5/GpH7-B3 variant Q295_06M/GpL16-k0 (antibody, human IgG1, kappa)
heavy 1: not shown
heavy 2: not shown
light: DIVMTQSPLSLPVTPGEPASISCQASESLVHSNRNTYLHWYLQKPGQSPQLLIYKVSNRFSGVPDRFSGSGSGTDFTLKISRVEAEDVGVYYCSQNTHVPPTFGQGTKVEIERTVAAPSVFIFPPSDEQLKSGTASVVCLLNNFYPREAKVQWKVDNALQSGNSQESVTEQDSKDSTYSLSSTLTLSKADYEKHKVYACEVTHQGLSSPVTKSFNRGEC
notes: as for B1
- He/Con_2aR [1]: 102 relative (HeCon Ab = 100)
- He/Con_2b [2]: 90.4 relative (HeCon Ab = 100)

B3: GpH7-A5/GpH7-B3 variant S337_03V/GpL16-k0 (antibody, human IgG1, kappa)
heavy 1: not shown
heavy 2: not shown
light: DIVMTQSPLSLPVTPGEPASISCQASESLVHSNRNTYLHWYLQKPGQSPQLLIYKVSNRFSGVPDRFSGSGSGTDFTLKISRVEAEDVGVYYCSQNTHVPPTFGQGTKVEIERTVAAPSVFIFPPSDEQLKSGTASVVCLLNNFYPREAKVQWKVDNALQSGNSQESVTEQDSKDSTYSLSSTLTLSKADYEKHKVYACEVTHQGLSSPVTKSFNRGEC
notes: as for B1
- He/Con_2aR [1]: 106 relative (HeCon Ab = 100)
- He/Con_2b [2]: 98.9 relative (HeCon Ab = 100)

B4: GpH7-A5/GpH7-B3 variant P331_18N/GpL16-k0 (antibody, human IgG1, kappa)
heavy 1: not shown
heavy 2: not shown
light: DIVMTQSPLSLPVTPGEPASISCQASESLVHSNRNTYLHWYLQKPGQSPQLLIYKVSNRFSGVPDRFSGSGSGTDFTLKISRVEAEDVGVYYCSQNTHVPPTFGQGTKVEIERTVAAPSVFIFPPSDEQLKSGTASVVCLLNNFYPREAKVQWKVDNALQSGNSQESVTEQDSKDSTYSLSSTLTLSKADYEKHKVYACEVTHQGLSSPVTKSFNRGEC
notes: as for B1
- He/Con_2aR [1]: 105 relative (HeCon Ab = 100)
- He/Con_2b [2]: 99.2 relative (HeCon Ab = 100)

B5: GpH7-A5/GpH7-B3 variant S337_04F/GpL16-k0 (antibody, human IgG1, kappa)
heavy 1: not shown
heavy 2: not shown
light: DIVMTQSPLSLPVTPGEPASISCQASESLVHSNRNTYLHWYLQKPGQSPQLLIYKVSNRFSGVPDRFSGSGSGTDFTLKISRVEAEDVGVYYCSQNTHVPPTFGQGTKVEIERTVAAPSVFIFPPSDEQLKSGTASVVCLLNNFYPREAKVQWKVDNALQSGNSQESVTEQDSKDSTYSLSSTLTLSKADYEKHKVYACEVTHQGLSSPVTKSFNRGEC
notes: as for B1
- He/Con_2aR [1]: 105 relative (HeCon Ab = 100)
- He/Con_2b [2]: 97.8 relative (HeCon Ab = 100)

B6: GpH7-A5/GpH7-B3 variant S337_19Q/GpL16-k0 (antibody, human IgG1, kappa)
heavy 1: not shown
heavy 2: not shown
light: DIVMTQSPLSLPVTPGEPASISCQASESLVHSNRNTYLHWYLQKPGQSPQLLIYKVSNRFSGVPDRFSGSGSGTDFTLKISRVEAEDVGVYYCSQNTHVPPTFGQGTKVEIERTVAAPSVFIFPPSDEQLKSGTASVVCLLNNFYPREAKVQWKVDNALQSGNSQESVTEQDSKDSTYSLSSTLTLSKADYEKHKVYACEVTHQGLSSPVTKSFNRGEC
notes: as for B1
- He/Con_2aR [1]: 106 relative (HeCon Ab = 100)
- He/Con_2b [2]: 99.7 relative (HeCon Ab = 100)

B7: GpH7-A5/GpH7-B3 variant P331_14T/GpL16-k0 (antibody, human IgG1, kappa)
heavy 1: not shown
heavy 2: not shown
light: DIVMTQSPLSLPVTPGEPASISCQASESLVHSNRNTYLHWYLQKPGQSPQLLIYKVSNRFSGVPDRFSGSGSGTDFTLKISRVEAEDVGVYYCSQNTHVPPTFGQGTKVEIERTVAAPSVFIFPPSDEQLKSGTASVVCLLNNFYPREAKVQWKVDNALQSGNSQESVTEQDSKDSTYSLSSTLTLSKADYEKHKVYACEVTHQGLSSPVTKSFNRGEC
notes: as for B1
- He/Con_2aR [1]: 104 relative (HeCon Ab = 100)
- He/Con_2b [2]: 99.8 relative (HeCon Ab = 100)

B8: GpH7-A5/GpH7-B3 variant S239_14T/GpL16-k0 (antibody, human IgG1, kappa)
heavy 1: not shown
heavy 2: not shown
light: DIVMTQSPLSLPVTPGEPASISCQASESLVHSNRNTYLHWYLQKPGQSPQLLIYKVSNRFSGVPDRFSGSGSGTDFTLKISRVEAEDVGVYYCSQNTHVPPTFGQGTKVEIERTVAAPSVFIFPPSDEQLKSGTASVVCLLNNFYPREAKVQWKVDNALQSGNSQESVTEQDSKDSTYSLSSTLTLSKADYEKHKVYACEVTHQGLSSPVTKSFNRGEC
notes: as for B1
- He/Con_2aR [1]: 103 relative (HeCon Ab = 100)
- He/Con_2b [2]: 97.3 relative (HeCon Ab = 100)

B9: GpH7-A5/GpH7-B3 variant S337_11K/GpL16-k0 (antibody, human IgG1, kappa)
heavy 1: not shown
heavy 2: not shown
light: DIVMTQSPLSLPVTPGEPASISCQASESLVHSNRNTYLHWYLQKPGQSPQLLIYKVSNRFSGVPDRFSGSGSGTDFTLKISRVEAEDVGVYYCSQNTHVPPTFGQGTKVEIERTVAAPSVFIFPPSDEQLKSGTASVVCLLNNFYPREAKVQWKVDNALQSGNSQESVTEQDSKDSTYSLSSTLTLSKADYEKHKVYACEVTHQGLSSPVTKSFNRGEC
notes: as for B1
- He/Con_2aR [1]: 103 relative (HeCon Ab = 100)
- He/Con_2b [2]: 94.3 relative (HeCon Ab = 100)

B10: GpH7-A5/GpH7-B3 variant S337_02A/GpL16-k0 (antibody, human IgG1, kappa)
heavy 1: not shown
heavy 2: not shown
light: DIVMTQSPLSLPVTPGEPASISCQASESLVHSNRNTYLHWYLQKPGQSPQLLIYKVSNRFSGVPDRFSGSGSGTDFTLKISRVEAEDVGVYYCSQNTHVPPTFGQGTKVEIERTVAAPSVFIFPPSDEQLKSGTASVVCLLNNFYPREAKVQWKVDNALQSGNSQESVTEQDSKDSTYSLSSTLTLSKADYEKHKVYACEVTHQGLSSPVTKSFNRGEC
notes: as for B1
- He/Con_2aR [1]: 105 relative (HeCon Ab = 100)
- He/Con_2b [2]: 97.2 relative (HeCon Ab = 100)

B11: GpH7-A5/GpH7-B3 variant P331_13S/GpL16-k0 (antibody, human IgG1, kappa)
heavy 1: not shown
heavy 2: not shown
light: DIVMTQSPLSLPVTPGEPASISCQASESLVHSNRNTYLHWYLQKPGQSPQLLIYKVSNRFSGVPDRFSGSGSGTDFTLKISRVEAEDVGVYYCSQNTHVPPTFGQGTKVEIERTVAAPSVFIFPPSDEQLKSGTASVVCLLNNFYPREAKVQWKVDNALQSGNSQESVTEQDSKDSTYSLSSTLTLSKADYEKHKVYACEVTHQGLSSPVTKSFNRGEC
notes: as for B1
- He/Con_2aR [1]: 105 relative (HeCon Ab = 100)
- He/Con_2b [2]: 96.8 relative (HeCon Ab = 100)

B12: GpH7-A5/GpH7-B3 variant S337_06M/GpL16-k0 (antibody, human IgG1, kappa)
heavy 1: not shown
heavy 2: not shown
light: DIVMTQSPLSLPVTPGEPASISCQASESLVHSNRNTYLHWYLQKPGQSPQLLIYKVSNRFSGVPDRFSGSGSGTDFTLKISRVEAEDVGVYYCSQNTHVPPTFGQGTKVEIERTVAAPSVFIFPPSDEQLKSGTASVVCLLNNFYPREAKVQWKVDNALQSGNSQESVTEQDSKDSTYSLSSTLTLSKADYEKHKVYACEVTHQGLSSPVTKSFNRGEC
notes: as for B1
- He/Con_2aR [1]: 105 relative (HeCon Ab = 100)
- He/Con_2b [2]: 96.7 relative (HeCon Ab = 100)

B13: GpH7-A5/GpH7-B3 variant S337_12R/GpL16-k0 (antibody, human IgG1, kappa)
heavy 1: not shown
heavy 2: not shown
light: DIVMTQSPLSLPVTPGEPASISCQASESLVHSNRNTYLHWYLQKPGQSPQLLIYKVSNRFSGVPDRFSGSGSGTDFTLKISRVEAEDVGVYYCSQNTHVPPTFGQGTKVEIERTVAAPSVFIFPPSDEQLKSGTASVVCLLNNFYPREAKVQWKVDNALQSGNSQESVTEQDSKDSTYSLSSTLTLSKADYEKHKVYACEVTHQGLSSPVTKSFNRGEC
notes: as for B1
- He/Con_2aR [1]: 107 relative (HeCon Ab = 100)
- He/Con_2b [2]: 99.5 relative (HeCon Ab = 100)

B14: GpH7-A5/GpH7-B3 variant S324_04F/GpL16-k0 (antibody, human IgG1, kappa)
heavy 1: not shown
heavy 2: not shown
light: DIVMTQSPLSLPVTPGEPASISCQASESLVHSNRNTYLHWYLQKPGQSPQLLIYKVSNRFSGVPDRFSGSGSGTDFTLKISRVEAEDVGVYYCSQNTHVPPTFGQGTKVEIERTVAAPSVFIFPPSDEQLKSGTASVVCLLNNFYPREAKVQWKVDNALQSGNSQESVTEQDSKDSTYSLSSTLTLSKADYEKHKVYACEVTHQGLSSPVTKSFNRGEC
notes: as for B1
- He/Con_2aR [1]: 104 relative (HeCon Ab = 100)
- He/Con_2b [2]: 89.1 relative (HeCon Ab = 100)

B15: GpH7-A5/GpH7-B3 variant Q295_10E/GpL16-k0 (antibody, human IgG1, kappa)
heavy 1: not shown
heavy 2: not shown
light: DIVMTQSPLSLPVTPGEPASISCQASESLVHSNRNTYLHWYLQKPGQSPQLLIYKVSNRFSGVPDRFSGSGSGTDFTLKISRVEAEDVGVYYCSQNTHVPPTFGQGTKVEIERTVAAPSVFIFPPSDEQLKSGTASVVCLLNNFYPREAKVQWKVDNALQSGNSQESVTEQDSKDSTYSLSSTLTLSKADYEKHKVYACEVTHQGLSSPVTKSFNRGEC
notes: as for B1
- He/Con_2aR [1]: 102 relative (HeCon Ab = 100)
- He/Con_2b [2]: 94.8 relative (HeCon Ab = 100)
